From the RNAGym collection of RNA variant scans (doi:10.1093/nar/gkz1192)

B1: CPEB3 Ribozyme (parent)
chain: UAACAGGGGGCCACAGCAGAAGCGUUCACGUCGCAGCCCCUGUCAGAUUCUGGUGAAUCUGCGAAUUCUGCUGUAUAUCUC

Variants of: B1
Assay: self-cleavage, relative activity (ratio to wild type); higher = more cleavage; in vitro, sequencing
How it was run: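 Relative activity was defined as the cleaved/total read fraction for a variant divided by the same fraction for the unmutated ribozyme. CPEB3 self-cleaving ribozyme libraries were made by rounds of error-prone PCR, barcoded, and transcribed in vitro with T7 RNA polymerase for 5 hours at 37°C, and cleavage ran through transcription plus a 15 min DNase I step before EDTA. Illumina sequencing of template-switched reverse transcripts gave the reads, and DNA sequencing mapped the barcodes. Averages come from three batches, using variants with at least 5 reads.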

Row | Variant | self-cleavage
1 | A21C C23G | 0.16
2 | A20U U58C | 0.28
3 | A20U C34U | 0.34
4 | A21C U41C | 0.13
5 | A20U G53A | 0.28
6 | A21C C38A | 0
7 | A21C C38U | 0.16
8 | A21C U78C | 0.37
9 | A20U C23G | 0.3
10 | A20U C23A | 0.22
11 | A20U C23U | 0.4
12 | A21G A75C | 0.62
13 | A21G A75G | 0.56
14 | A21G A75U | 0.72
15 | A21C U74C | 0.08
16 | A21C U60A | 0.36
17 | A21C U60C | 0.07
18 | A21C U60G | 0.15
19 | A20U C38A | 0.1
20 | A20U C38U | 0.42
21 | A20U U60G | 0.21
22 | A20U U60C | 0.19
23 | A20U U60A | 0.41
24 | A21G G30A | 0.32

Row | Variant | self-cleavage
25 | A21G G30U | 0.21
26 | A21G G30C | 0.15
27 | A21G G55A | 0.42
28 | A21G G55U | 0.57
29 | A21C A47G | 0.3
30 | A21C G55C | 0.21
31 | A21C A65G | 0.34
32 | A20U C81U | 0.32
33 | A20U G52U | 0.38
34 | A20U G52C | 0.27
35 | A20U G52A | 0.41
36 | A21G C40A | 0.26
37 | A21G C40U | 0.46
38 | A21G G61U | 0.34
39 | A21G G61A | 0.2
40 | A20U C37U | 0.21
41 | A20U U26A | 0.34
42 | A20U U26C | 0.27
43 | A21G C39G | 0.37
44 | A21G C39A | 0.1
45 | A21G C39U | 0.3
46 | A20U C32U | 0.3
47 | A20U C32A | 0.18
48 | A21G G33C | 0.14

Row | Variant | self-cleavage
49 | A21G G33U | 0.19
50 | A21G G33A | 0.33
51 | A21G C32U | 0.22
52 | A21G C32A | 0.23
53 | A21G C32G | 0.23
54 | A21G G73A | 1.21
55 | A20U U67G | 0.44
56 | A20U U67A | 1.16
57 | A20U U67C | 0.22
58 | A21C U80C | 0.1
59 | A21C U80A | 0.18
60 | A21G C68A | 0.17
61 | A21G C68G | 0.2
62 | A21G C68U | 0.43
63 | A21C U72A | 0.19
64 | A20U A45C | 0.12
65 | A20U A45U | 0.14
66 | A20U A45G | 0.28
67 | A20U A75U | 0.28
68 | A20U A75G | 0.2
69 | A20U C29U | 0.15
70 | A20U G70A | 0.17
71 | A20U G70U | 0.15
72 | A20U U80A | 0.45

Row | Variant | self-cleavage
73 | A20U U80C | 0.37
74 | A21G U49A | 0.48
75 | A21G U49C | 0.27
76 | A21G U49G | 0.23
77 | A21G U41G | 0.29
78 | A21G U41A | 0.3
79 | A21G U41C | 0.66
80 | A21C U48C | 0.19
81 | A20U A65C | 0.1
82 | A20U A65G | 0.2
83 | A21G G36U | 0.07
84 | A21G G36C | 0.24
85 | A20U U76A | 0.25
86 | A20U U76C | 0.36
87 | A20G U69G | 0.42
88 | A20G U69A | 0.34
89 | A20G U69C | 0.5
90 | A20G U58G | 0.11
91 | A20G U58A | 0.27
92 | A20G U58C | 0.36
93 | A20G U78C | 0.85
94 | A20G U78A | 0.79
95 | A21G C62A | 0.2
96 | A21G C62G | 0.22

Row | Variant | self-cleavage
97 | A21G C62U | 0.19
98 | A21C U69A | 0.17
99 | A21C U69C | 0.2
100 | A21C U67C | 0.1
101 | A20G U49C | 0.31
102 | A20G U49G | 0.28
103 | A20G U49A | 0.34
104 | A21G A56U | 0.41
105 | A21G A56C | 0.36
106 | A21G A56G | 0.4
107 | A21G G46U | 0.36
108 | A21G G46C | 0.18
109 | A21G G46A | 0.42
110 | A21G C59U | 0.38
111 | A21G C59A | 0.31
112 | A21G A45C | 0.25
113 | A21G A45U | 0.32
114 | A21G A45G | 0.44
115 | A21G C27U | 0.18
116 | A21G C27A | 0.14
117 | A20U G46U | 0.18
118 | A20U G46A | 0.07
119 | A21G G24A | 0.24
120 | A21G G24U | 0.44

Row | Variant | self-cleavage
121 | A21G G24C | 0.23
122 | A20U A64U | 0.26
123 | A20U A64G | 0.35
124 | A20U C50A | 0.21
125 | A20U G63A | 0.19
126 | A20U A28U | 0.19
127 | A20U A28C | 0.18
128 | A20U A28G | 0.22
129 | A21C G46A | 0.37
130 | A21G C37U | 0.39
131 | A21G C37G | 0.19
132 | A21G C37A | 0.42
133 | A21C U43A | 0.35
134 | A21C U43C | 0.19
135 | A20G U74A | 1.19
136 | A20G U74C | 1.17
137 | A20G U74G | 1.17
138 | A21C U25A | 0.28
139 | A21C U25C | 0.28
140 | A21C C81G | 0.3
141 | A20U A57U | 0.58
142 | A20U A57G | 0.23
143 | A20U C39A | 0.21
144 | A20U C39G | 0.27

Row | Variant | self-cleavage
145 | A20G U51C | 0.85
146 | A20G U51A | 0.8
147 | A20G U51G | 0.82
148 | A20U G22U | 0.1
149 | A20U G22A | 0.2
150 | A21C C71A | 0.09
151 | A21C C71G | 0.11
152 | A20U U48A | 0.14
153 | A20U U48C | 0.29
154 | A20U U74G | 0.55
155 | A20U U74A | 0.54
156 | A20U U74C | 0.33
157 | A21G C29U | 0.28
158 | A20G U80A | 1.03
159 | A20G U80C | 1.03
160 | A20G U80G | 1.14
161 | A21G C79U | 0.76
162 | A20G U43A | 1.05
163 | A20G U43G | 0.44
164 | A20G U43C | 0.4
165 | A20G U76C | 0.92
166 | A20G U76G | 0.99
167 | A20G U76A | 1.03
